Test results as given in article PMC4865633, “Data on dimer formation between importin α subtypes” (Data in Brief, 2016).

B1: FLAG-h-importin α8 (KPNA7) (natural protein)
chain: not shown
notes: human importin α8 (KPNA7), amplified from pcDNA5/3xFLAG-h-importin α8 with primers from the start codon to the stop codon, in pGEX6P3; Cleavage of GST is told in general in the methods; also called FLAG-importin α8; IMPα8; source: E. coli Rosetta, GST fusion purified on GSH beads, bacterially expressed and purified recombinant protein; not shown: FLAG, N-terminal, kept
B2: GST-h-importin α3 (KPNA4, Qip1) (natural protein)
chain: MADNEKLDNQRLKNFKNKGRDLETMRRQRNEVVVELRKNKRDEHLLKRRNVPHEDICEDSDIDGDYRVQNTSLEAIVQNASSDNQGIQLSAVQAARKLLSSDRNPPIDDLIKSGILPILVHCLERDDNPSLQFEAAWALTNIASGTSEQTQAVVQSNAVPLFLRLLHSPHQNVCEQAVWALGNIIGDGPQCRDYVISLGVVKPLLSFISPSIPITFLRNVTWVMVNLCRHKDPPPPMETIQEILPALCVLIHHTDVNILVDTVWALSYLTDAGNEQIQMVIDSGIVPHLVPLLSHQEVKVQTAALRAVGNIVTGTDEQTQVVLNCDALSHFPALLTHPKEKINKEAVWFLSNITAGNQQQVQAVIDANLVPMIIHLLDKGDFGTQKEAAWAISNLTISGRKDQVAYLIQQNVIPPFCNLLTVKDAQVVQVVLDGLSNILKMAEDEAETIGNLIEECGGLEKIEQLQNHENEDIYKLAYEIIDQFFSSDDIDEDPSLVPEAIQGGTFGFNSSANVPTEGFQF
notes: human importin α3 (KPNA4, Qip1); plasmid pGEX2T-human-importin α3, obtained as described previously; also called GST-importin α3; IMPα3; source: E. coli Rosetta, purified on GSH beads, bacterially expressed and purified recombinant protein
B3: SV40TNLS-GFP (domain or fragment)
chain: PPKKKRKVED
notes: also called SV40TNLS substrate; SV40 large T antigen NLS

Tests used:
Details in all cases: both partners purified
[1] = target: B2; assay: pull-down; GST-h-importin α3 (50 pmol) on GSH beads preincubated with p53 (250 pmol) in TB with 0.1% Triton X-100 at 4 °C for 1 h, washed, then 50 or 500 pmol FLAG-h-importin α8 or α1 added at 4 °C for 1 h; western blot (Fig. 2B)
[2] = target: GST-m-importin α1 (KPNA2) (mouse, UniProt P52293 1-529); assay: pull-down; GST fusions immobilized on GSH beads, 100 pmol FLAG-importin α in 200 μL transport buffer (20 mM HEPES pH 7.3, 110 mM potassium acetate, 2 mM magnesium acetate, 1 mM EGTA, 1 mM DTT) with 0.1% Triton X-100, 4 °C, 1 h; western blot with anti-FLAG and anti-GST (Fig. 1A)
[3] = target: T1, GST-h-importin α8 (KPNA7) (human, UniProt A9QM74 1-516); assay: as above
T1 construct: human importin α8 (KPNA7); also called GST-importin α8; IMPα8; source: E. coli Rosetta, purified on GSH beads, bacterially expressed and purified recombinant protein
T1 sequence (A9QM74 whole entry): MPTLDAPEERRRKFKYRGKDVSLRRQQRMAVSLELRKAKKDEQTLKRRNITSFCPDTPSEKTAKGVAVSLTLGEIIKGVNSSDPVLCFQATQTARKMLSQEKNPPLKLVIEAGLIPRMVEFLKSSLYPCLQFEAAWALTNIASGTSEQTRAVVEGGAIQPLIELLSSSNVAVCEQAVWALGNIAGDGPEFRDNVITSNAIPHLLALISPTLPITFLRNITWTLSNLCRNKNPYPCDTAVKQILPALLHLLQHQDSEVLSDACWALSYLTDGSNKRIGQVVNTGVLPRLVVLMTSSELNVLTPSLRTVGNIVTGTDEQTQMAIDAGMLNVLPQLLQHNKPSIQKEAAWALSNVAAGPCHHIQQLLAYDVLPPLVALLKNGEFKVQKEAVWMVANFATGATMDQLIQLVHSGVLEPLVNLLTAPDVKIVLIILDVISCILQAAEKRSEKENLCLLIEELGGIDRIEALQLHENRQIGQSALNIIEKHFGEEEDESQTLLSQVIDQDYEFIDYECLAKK

[4] = target: FLAG-h-importin α1 (KPNA2) (human, UniProt P52292 1-529); assay: pull-down; GST-h-importin α3 (50 pmol) on GSH beads preincubated with p53 (250 pmol) in TB with 0.1% Triton X-100 at 4 °C for 1 h, washed, then 50 or 500 pmol FLAG-h-importin α8 or α1 added at 4 °C for 1 h; western blot (Fig. 2B)
[5] = target: B2; assay: pull-down; GST-h-importin α3 (50 pmol) on GSH beads preincubated with SV40TNLS-GFP (50 pmol) at 4 °C for 1 h, washed, then 50 or 500 pmol FLAG-h-importin α8 or α1 added at 4 °C for 1 h; western blot (Fig. 1B)

B1: binds [1]; binds [2]; binds [3].

B2: binds [4].

B3: binds [5].
